Measurements: PMC7673117

Tests used:
[1] = target: HLA-E loaded with Peptide 12 (…) on 721.174 cells (human (endogenous in 721.174 cells) | Epstein-Barr virus (B95.8 laboratory strain)) (UniProt P13747)
[2] = target: HLA-E loaded with Peptide 9 on 721.174 cells (human (endogenous in 721.174 cells) | Epstein-Barr virus (B95.8 laboratory strain)) (UniProt P13747)
[3] = target: HLA-E loaded with Peptide 19 on 721.174 cells (human (endogenous in 721.174 cells) | Epstein-Barr virus (B95.8 laboratory strain)) (UniProt P13747)

Measured: cytotoxicity of sorted NKG2A+NKG2C- NK cells against peptide-pulsed 721.174 cells, E:T 3:1, 5 h

NKG2A/CD94 receptor on primary human NK cells (from UniProt P26715;Q13241)
> 80%: [1] | [2] | [3]
